Laboratory results: patent publication US8865222B2, “Beta-casein assemblies for enrichment of food and beverages and methods of preparation thereof” (Technion Research and Development Foundation Ltd., priority 2008, dated 2014)

What was measured:
[1] = Analytical ultracentrifugation, sedimentation equilibrium; assay type: physicochemical
Description: • Cryo-TEM: Specimens were prepared in the controlled environment vitrification system (CEVS) (Bellare et al. Electron Microsc. Technique, 1988, 10; 87-111) at 24° C. and 100% relative humidity to avoid loss of volatiles. First, the solutions were incubated in the CEVS at the desired temperature for 1 h. Then, a 7 μL drop of each solution was placed on a TEM copper grid covered with a perforated carbon film (Pelco International) and blotted with filter paper to form a thin liquid film of the sample (100-200 nm thick). The thinned sample was plunged into liquid ethane at its freezing temperature (−183° C.) to form a vitrified specimen and then transferred to liquid nitrogen ([…]) for storage. The vitrified specimens were examined in a Philips CM120 transmission electron microscope operating at an accelerating voltage of 120 kV. We used an Oxford CT3500 (Oxford Instruments) cryoholder that maintained the specimens below −175° C. during sample transfer and observation. Images were recorded digitally on a cooled Gatan MultiScan 791 CCD camera using DigitalMicrograph 3.1 software (Gatan) in the low-dose imaging mode to minimize beam exposure and electron-beam radiation damage. • ITC: ITC measurements were performed with a VP-ITC calorimeter (MicroCal) at a temperature of 24° C. […] The micellar solution was injected into the reaction cell in 28 steps of 10 μL aliquots each, and the heat flow was measured. […] The average apparent molecular weight of the micelles at the various protein concentrations was calculated following methods well known in the art (The partial specific volume vj of the solute was taken to be 0.742 cm3/g3, and a solution density F of 1.0044 g/cm3 was measured). At beta-casein concentrations of 2 mg/mL and above under low pH conditions, the plot of the natural logarithm of the measured absorbance versus the square of the radius from the axis of rotation was not linear. […] The molecular weight calculated using this slope was divided by the monomer molecular weight calculated from the beta-casein amino acid sequence (24000). […]

[2] = Dynamic light scattering (DLS) particle size; assay type: physicochemical; conditions: pH 2.6, pure beta-casein, FIG. 12
Description: The pure beta-casein micelles remain small, below 80 nm, consistent with the fact the solution remains transparent.
The particle size distribution and the turbidity of a vitamin D loaded beta-casein micellar solutions at pH 7.0 and pH 2.5 as a function of beta-casein concentration are shown in FIGS. 15 and 16 respectively. Vitamin D concentration in this experiment was kept constant (82.5 μg/ml; 0.2 mM) and the beta-casein concentration was raised gradually from 0 to 2% by weight (0 to 0.8 mM). […] This value is relatively low and the solutions looked transparent to the human eye.

B1: beta-casein: lyophilized bovine beta-casein (~24 kDa milk protein) self-assembled into nano-sized micelles at low or neutral pH (protein, UniProt P02666 16-224, looked up)
Beta-casein: RELEELNVPGEIVESLSSSEESITRINKKIEKFQSEEQQQTEDELQDKIHPFAQTQSLVYPFPGPIPNSLPQNIPPLTQTPVVVPPFLQPEVMGVSKVKEAMAPKHKEMPFPKYPVEPFTESQSLTLTDVENLHLPLPLLQSWMHQPHQPLPPTVMFPPQSVLSLSQSKVLPVPQKAVPYPQRDMPIQAFLLYQEPVLGPVRGPFPIIV
aggregation number ([1]; pH 2.6, around the CMC): 3
aggregation state ([1]; pH 2.6, concentrations lower than the CMC): monomeric
Nagg ([1]; pH 7.0 and ionic strength 0.1): 20
mean size of the assemblies [2]: below 80 nm
